Earlier results as cited in PMC10952613.
Values joined by “and” are separate entries in the source; they are usually repeats but may differ in a detail not shown here. Equal values may be shown once.

Biological target: EGFR (Homo sapiens) (UniProt P00533)

Kd: < 1 nM and > 10 nM
Substance: EGF (from UniProt P01133)
